Measured values as given in patent US20260008857A1 (FLAGSHIP PIONEERING INNOVATIONS VI, published 2026).

Assays:
[1] = biological target: T1, IL-4Rα on human primary cells (primary B cells, whole blood B and T cells, PBMCs) (human, UniProt P24394 26-825); assay: cell-based or functional assay
T1 sequence (looked up): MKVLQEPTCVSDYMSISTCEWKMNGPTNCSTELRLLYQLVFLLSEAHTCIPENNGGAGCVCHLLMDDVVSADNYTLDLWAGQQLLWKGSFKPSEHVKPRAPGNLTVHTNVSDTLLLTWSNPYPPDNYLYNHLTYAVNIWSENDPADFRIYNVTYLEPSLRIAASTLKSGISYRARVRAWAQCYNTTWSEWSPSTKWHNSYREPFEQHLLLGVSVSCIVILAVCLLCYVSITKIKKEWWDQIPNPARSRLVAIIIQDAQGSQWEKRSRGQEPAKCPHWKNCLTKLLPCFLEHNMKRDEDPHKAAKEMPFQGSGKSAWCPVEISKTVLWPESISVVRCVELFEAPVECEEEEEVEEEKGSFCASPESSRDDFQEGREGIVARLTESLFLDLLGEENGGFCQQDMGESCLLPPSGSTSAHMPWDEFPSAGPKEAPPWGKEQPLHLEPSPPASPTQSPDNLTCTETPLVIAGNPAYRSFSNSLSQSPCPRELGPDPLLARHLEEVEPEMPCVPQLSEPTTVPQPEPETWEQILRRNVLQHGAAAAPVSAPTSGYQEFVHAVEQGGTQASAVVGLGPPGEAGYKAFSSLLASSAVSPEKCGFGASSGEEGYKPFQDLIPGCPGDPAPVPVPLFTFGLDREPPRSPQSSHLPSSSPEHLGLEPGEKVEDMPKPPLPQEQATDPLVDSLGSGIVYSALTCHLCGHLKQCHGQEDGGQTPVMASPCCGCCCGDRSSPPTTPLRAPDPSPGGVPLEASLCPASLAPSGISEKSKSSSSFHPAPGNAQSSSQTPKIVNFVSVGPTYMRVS

[2] = biological target: T2, human IL-4Rα (interleukin 4 receptor subunit alpha) (human, UniProt P24394 26-232, limits assumed); assay: SPR, Carterra LSA non-regenerative capture kinetics; antibody captured on goat anti-human polyclonal lawn, human IL-4Rα as analyte, 25 C, 1:1 model; average ± SD of technical replicates
T2 sequence (looked up): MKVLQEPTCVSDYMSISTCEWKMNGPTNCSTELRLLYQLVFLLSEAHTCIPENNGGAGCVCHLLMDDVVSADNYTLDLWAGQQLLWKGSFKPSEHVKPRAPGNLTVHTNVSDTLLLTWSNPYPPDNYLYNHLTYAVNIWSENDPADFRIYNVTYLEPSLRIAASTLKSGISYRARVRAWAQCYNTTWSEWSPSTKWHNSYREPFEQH

[3] = biological target: T2, human IL-4Rα (interleukin 4 receptor …); assay: indirect ELISA on plate-coated recombinant human IL-4Rα (2 ug/mL), anti-human IgG Fc-HRP, A450
[4] = biological target: T2, human IL-4Rα (interleukin 4 receptor …); assay: SPR, Biacore 8K+ multi-cycle capture kinetics; antibody captured on goat anti-human polyclonal surface, human IL-4Rα as analyte, 25 C, 1:1 model

B1: Reference Antibody (antibody, human IgG4 S228P, kappa, V domains shown)
VH: EVQLVESGGGLEQPGGSLRLSCAGSGFTFRDYAMTWVRQAPGKGLEWVSSISGSGGNTYYADSVKGRFTISRDNSKNTLYLQMNSLRAEDTAVYYCAKDRLSITIRPRYYGLDVWGQGTTVTVSS
VL: DIVMTQSPLSLPVTPGEPASISCRSSQSLLYSIGYNYLDWYLQKSGQSPQLLIYLGSNRASGVPDRFSGSGSGTDFTLKISRVEAEDVGFYYCMQALQTPYTFGQGTKLEIKR
With B1 the “Inhibition of CD23 Expression by Primary B cells (IC50), Donor 13” value (“Inhibition of CD23 Expression … Donor 13” below) [1] was 22 nM, the “Inhibition of CD23 Expression by Primary B cells (IC50), Donor 52” value (from here on “Inhibition of CD23 Expression … Donor 52”) [1] was 11.9 nM and the “Inhibition of CD23 Expression by Primary B cells (IC50), Donor 53” value (shortened to “Inhibition of CD23 Expression … Donor 53”) [1] was 18 nM. For the same binder, the “Inhibition of CD23 Expression by Primary B cells (IC50), Donor 56” value (“Inhibition of CD23 Expression … Donor 56” below) [1] was 29.8 nM.

B2: AB-10c (antibody, human IgG4 S228P, kappa, V domains shown)
VH: EVQLVESGGGLEQPGGSLRLSCAGSGFTFRDYAMTWVRQAPGKGLEWVSSISGSGDKTYYADSVKGRFTISRDNSKNTLYLQMNSLRAEDTAVYYCARDRLSSSARPVYVGLDVWGQGTTVTVSS
VL: DIVMTQSPLSLPVTPGEPASISCRSSQSLLYSVGKNYLDWYLQKSGQSPQLLIYLASNRASGVPDRFSGSGSGTDFTLKISRVEAEDVGFYYCMQDLFHPYTFGQGTKLEIKR
notes: hIgG4 WT, kappa
B2 showed a Kd [2] of 546 nM.

B3: AB-11c (antibody, human IgG4 S228P, kappa, V domains shown)
VH: EVQLVESGGGLEQPGGSLRLSCAGSGFTFRDYAMTWVRQAPGKGLEWVSSISGSGTNTYYADSVKGRFTISRDNSKNTLYLQMNSLRAEDTAVYYCAKDRLSVSTRPKYYGLDVWGQGTTVTVSS
VL: DIVMTQSPLSLPVTPGEPASISCRSSQSLDYSYGYNYLDWYLQKSGQSPQLLIYLASNRASGVPDRFSGSGSGTDFTLKISRVEAEDVGFYYCMQSLHTPYTFGQGTKLEIKR
notes: hIgG4 WT, kappa
B3 showed a Kd [2] of 0.83 nM.

B4: AB-3c (antibody, human IgG4 S228P, kappa)
heavy chain: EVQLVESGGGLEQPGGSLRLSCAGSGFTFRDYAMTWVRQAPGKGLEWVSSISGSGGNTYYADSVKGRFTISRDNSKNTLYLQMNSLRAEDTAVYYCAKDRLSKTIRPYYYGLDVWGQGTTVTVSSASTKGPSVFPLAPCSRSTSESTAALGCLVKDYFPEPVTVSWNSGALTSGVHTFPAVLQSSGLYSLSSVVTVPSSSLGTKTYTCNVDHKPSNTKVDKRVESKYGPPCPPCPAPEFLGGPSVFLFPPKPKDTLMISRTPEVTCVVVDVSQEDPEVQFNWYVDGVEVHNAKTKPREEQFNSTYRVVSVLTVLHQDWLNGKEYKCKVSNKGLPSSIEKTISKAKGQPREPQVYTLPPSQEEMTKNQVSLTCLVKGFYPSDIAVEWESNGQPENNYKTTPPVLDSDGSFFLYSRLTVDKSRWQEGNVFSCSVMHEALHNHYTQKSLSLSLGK
light chain: DIVMTQSPLSLPVTPGEPASISCRSSQSLLYSTGYNYLDWYLQKSGQSPQLLIYLGSNRASGVPDRFSGSGSGTDFTLKISRVEAEDVGFYYCMQSLSTPYTFGQGTKLEIKRTVAAPSVFIFPPSDEQLKSGTASVVCLLNNFYPREAKVQWKVDNALQSGNSQESVTEQDSKDSTYSLSSTLTLSKADYEKHKVYACEVTHQGLSSPVTKSFNRGEC
notes: hIgG4 WT ('c')
With B4 the “EC50 (read off the curve)” value [3] was ~0.1 nM.

B5: AB-7c (antibody, human IgG4 S228P, kappa, V domains shown)
VH: EVQLVESGGGLEQPGGSLRLSCAGSGFTFRDYAMTWVRQAPGKGLEWVSSISGSGSTTYYADSVKGRFTISRDNSKNTLYLQMNSLRAEDTAVYYCAKDRLTASVRPIYVGLDVWGQGTTVTVSS
VL: DIVMTQSPLSLPVTPGEPASISCRSSQSLLYSEGYNYLDWYLQKSGQSPQLLIYLASNRASGVPDRFSGSGSGTDFTLKISRVEAEDVGFYYCMQTLKTPYTFGQGTKLEIKR
notes: hIgG4 WT, kappa
With B5 the Kd [2] was 0.3 nM.

B6: AB-6c (antibody, human IgG4 S228P, kappa)
heavy: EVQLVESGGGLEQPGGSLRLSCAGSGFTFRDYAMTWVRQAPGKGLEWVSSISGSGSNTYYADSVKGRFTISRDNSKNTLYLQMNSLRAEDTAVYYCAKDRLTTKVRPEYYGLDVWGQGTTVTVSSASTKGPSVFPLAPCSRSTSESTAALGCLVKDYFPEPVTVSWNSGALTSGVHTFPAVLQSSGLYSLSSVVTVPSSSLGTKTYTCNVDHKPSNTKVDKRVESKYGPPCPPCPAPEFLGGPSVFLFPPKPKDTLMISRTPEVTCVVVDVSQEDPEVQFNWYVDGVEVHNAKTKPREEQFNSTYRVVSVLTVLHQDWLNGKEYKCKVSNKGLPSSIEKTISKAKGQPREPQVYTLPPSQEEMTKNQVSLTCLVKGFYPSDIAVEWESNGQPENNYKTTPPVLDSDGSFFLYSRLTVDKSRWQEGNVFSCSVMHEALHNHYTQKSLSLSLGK
light: DIVMTQSPLSLPVTPGEPASISCRSSQSLLYSIGYNYLDWYLQKSGQSPQLLIYLASNRASGVPDRFSGSGSGTDFTLKISRVEAEDVGFYYCMQSLQTPYTFGQGTKLEIKRTVAAPSVFIFPPSDEQLKSGTASVVCLLNNFYPREAKVQWKVDNALQSGNSQESVTEQDSKDSTYSLSSTLTLSKADYEKHKVYACEVTHQGLSSPVTKSFNRGEC
notes: hIgG4 WT, kappa
In the case of B6, the Kd [2] is reported as ≤ 0.1 nM.

B7: AB-8c (antibody, human IgG4 S228P, kappa, V domains shown)
VH: EVQLVESGGGLEQPGGSLRLSCAGSGFTFRDYAMTWVRQAPGKGLEWVSSISGSGSNTYYADSVKGRFTISRDNSKNTLYLQMNSLRAEDTAVYYCAKDRLTASVRPNYYGLDVWGQGTTVTVSS
VL: DIVMTQSPLSLPVTPGEPASISCRSSQSLLYSEGYNYLDWYLQKSGQSPQLLIYLASNRASGVPDRFSGSGSGTDFTLKISRVEAEDVGFYYCMQSLTTPYTFGQGTKLEIKR
notes: hIgG4 WT, kappa
B7 gave a Kd [2] of 0.85 nM.

B8: AB-5c (antibody, human IgG4 S228P, kappa)
heavy: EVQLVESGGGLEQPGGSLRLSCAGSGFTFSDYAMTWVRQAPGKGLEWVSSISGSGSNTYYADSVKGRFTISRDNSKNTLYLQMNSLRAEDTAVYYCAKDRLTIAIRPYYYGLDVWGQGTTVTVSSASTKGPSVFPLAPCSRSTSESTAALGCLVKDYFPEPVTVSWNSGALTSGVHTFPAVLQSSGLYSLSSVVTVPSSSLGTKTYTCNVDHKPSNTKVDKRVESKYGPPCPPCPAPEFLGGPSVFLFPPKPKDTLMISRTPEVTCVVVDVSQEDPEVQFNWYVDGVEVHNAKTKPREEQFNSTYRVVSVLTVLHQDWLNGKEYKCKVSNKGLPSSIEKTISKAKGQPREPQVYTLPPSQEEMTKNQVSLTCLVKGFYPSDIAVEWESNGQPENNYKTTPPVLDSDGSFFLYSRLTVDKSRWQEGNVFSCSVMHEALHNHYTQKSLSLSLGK
light: DIVMTQSPLSLPVTPGEPASISCRSSQSLDYSIGYNYLDWYLQKSGQSPQLLIYLASNRASGVPDRFSGSGSGTDFTLKISRVEAEDVGFYYCMQALQTPYTFGQGTKLEIKRTVAAPSVFIFPPSDEQLKSGTASVVCLLNNFYPREAKVQWKVDNALQSGNSQESVTEQDSKDSTYSLSSTLTLSKADYEKHKVYACEVTHQGLSSPVTKSFNRGEC
notes: hIgG4 WT, kappa
B8 showed a Kd [2] of 2.37 nM.

B9: AB-4c (antibody, human IgG4 S228P, kappa)
heavy: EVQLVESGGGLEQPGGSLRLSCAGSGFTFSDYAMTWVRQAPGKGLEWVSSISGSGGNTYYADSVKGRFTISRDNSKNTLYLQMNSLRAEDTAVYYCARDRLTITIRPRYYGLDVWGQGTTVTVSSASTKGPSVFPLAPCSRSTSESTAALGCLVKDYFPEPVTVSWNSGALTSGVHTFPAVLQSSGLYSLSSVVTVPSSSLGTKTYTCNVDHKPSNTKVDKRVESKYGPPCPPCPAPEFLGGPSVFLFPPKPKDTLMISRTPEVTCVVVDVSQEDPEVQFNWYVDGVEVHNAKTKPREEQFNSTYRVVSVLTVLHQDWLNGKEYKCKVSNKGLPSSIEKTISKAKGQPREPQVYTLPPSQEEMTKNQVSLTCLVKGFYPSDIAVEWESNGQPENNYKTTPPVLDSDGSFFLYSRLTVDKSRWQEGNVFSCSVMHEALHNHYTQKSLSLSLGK
light: DIVMTQSPLSLPVTPGEPASISCRSSQSLLYSTGYNYLDWYLQKSGQSPQLLIYLASNRASGVPDRFSGSGSGTDFTLKISRVEAEDVGFYYCMQALSTPYTFGQGTKLEIKRTVAAPSVFIFPPSDEQLKSGTASVVCLLNNFYPREAKVQWKVDNALQSGNSQESVTEQDSKDSTYSLSSTLTLSKADYEKHKVYACEVTHQGLSSPVTKSFNRGEC
notes: hIgG4 WT, kappa
With B9 the Kd [2] was 0.56 nM.

B10: AB-12c (antibody, human IgG4 S228P, kappa)
heavy: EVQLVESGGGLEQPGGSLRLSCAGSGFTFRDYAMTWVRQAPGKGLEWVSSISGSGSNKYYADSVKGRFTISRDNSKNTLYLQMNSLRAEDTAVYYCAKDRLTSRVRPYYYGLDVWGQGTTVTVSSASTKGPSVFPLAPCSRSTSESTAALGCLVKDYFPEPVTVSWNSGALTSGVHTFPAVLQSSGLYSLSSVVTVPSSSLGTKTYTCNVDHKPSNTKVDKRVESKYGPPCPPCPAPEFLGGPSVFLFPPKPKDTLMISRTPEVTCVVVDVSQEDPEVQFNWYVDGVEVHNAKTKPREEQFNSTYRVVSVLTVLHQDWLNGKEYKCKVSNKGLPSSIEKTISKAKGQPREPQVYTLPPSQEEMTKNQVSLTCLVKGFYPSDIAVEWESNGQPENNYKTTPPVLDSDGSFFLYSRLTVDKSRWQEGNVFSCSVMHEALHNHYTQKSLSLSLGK
light: DIVMTQSPLSLPVTPGEPASISCRSSQSLLYSQGYNYLDWYLQKSGQSPQLLIYLASNRASGVPDRFSGSGSGTDFTLKISRVEAEDVGFYYCMQSLFTPYTFGQGTKLEIKRTVAAPSVFIFPPSDEQLKSGTASVVCLLNNFYPREAKVQWKVDNALQSGNSQESVTEQDSKDSTYSLSSTLTLSKADYEKHKVYACEVTHQGLSSPVTKSFNRGEC
notes: hIgG4 WT, kappa
In the case of B10, the Kd [2] is reported as ≤ 0.09 nM.

B11: AB-2c (antibody, human IgG4 S228P, kappa, V domains shown)
VH: EVQLVESGGGLEQPGGSLRLSCAGSGFTFRDYAMTWVRQAPGKGLEWVSSISGSGSNTYYADSVKGRFTISRDNSKNTLYLQMNSLRAEDTAVYYCARDRLTAAVRPYYYGLDVWGQGTTVTVSS
VL: DIVMTQSPLSLPVTPGEPASISCRSSQSLDYSSGYNYLDWYLQKSGQSPQLLIYLASNRASGVPDRFSGSGSGTDFTLKISRVEAEDVGFYYCMQSLQTPYTFGQGTKLEIKR
notes: hIgG4 WT, kappa
In the case of B11, the Kd [2] is reported as 50.7 nM.

B12: AB-13b (antibody, human IgG4 S228P, kappa)
heavy: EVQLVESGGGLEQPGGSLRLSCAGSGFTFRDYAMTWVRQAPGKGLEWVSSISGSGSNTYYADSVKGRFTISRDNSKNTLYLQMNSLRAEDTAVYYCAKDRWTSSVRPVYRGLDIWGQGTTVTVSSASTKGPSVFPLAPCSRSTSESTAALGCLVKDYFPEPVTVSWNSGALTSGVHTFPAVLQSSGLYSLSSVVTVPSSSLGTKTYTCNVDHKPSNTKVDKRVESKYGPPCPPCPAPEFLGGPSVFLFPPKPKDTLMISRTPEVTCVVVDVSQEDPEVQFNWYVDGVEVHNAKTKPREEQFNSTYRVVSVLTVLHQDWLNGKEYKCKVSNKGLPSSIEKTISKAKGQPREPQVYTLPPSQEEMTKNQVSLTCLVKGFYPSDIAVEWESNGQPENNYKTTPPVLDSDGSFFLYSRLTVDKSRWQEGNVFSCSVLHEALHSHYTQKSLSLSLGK
light: DIVMTQSPLSLPVTPGEPASISCRSSQSLLYSHGYNYLDWYLQKSGQSPQLLIYLASNRASGVPDRFSGSGSGTDFTLKISRVEAEDVGFYYCMQSLYTPYTFGQGTKLEIKRTVAAPSVFIFPPSDEQLKSGTASVVCLLNNFYPREAKVQWKVDNALQSGNSQESVTEQDSKDSTYSLSSTLTLSKADYEKHKVYACEVTHQGLSSPVTKSFNRGEC
notes: hIgG4 LS variant, kappa
With B12 the “Inhibition of CD23 Expression … Donor 13” value [1] was 30.1 nM, the “Inhibition of CD23 Expression … Donor 52” value [1] was 34.4 nM and the “Inhibition of CD23 Expression … Donor 53” value [1] was 35.9 nM. The “Inhibition of CD23 Expression … Donor 56” value [1] was 54.2 nM, the Kd [4] was 0.0249 nM and the koff [4] was 2.19e-05 s⁻¹. For the same binder, the kon [4] was 881000 M⁻¹ s⁻¹.

B13: AB-13a (antibody, human IgG4 S228P, kappa)
heavy: EVQLVESGGGLEQPGGSLRLSCAGSGFTFRDYAMTWVRQAPGKGLEWVSSISGSGSNTYYADSVKGRFTISRDNSKNTLYLQMNSLRAEDTAVYYCAKDRWTSSVRPVYRGLDIWGQGTTVTVSSASTKGPSVFPLAPCSRSTSESTAALGCLVKDYFPEPVTVSWNSGALTSGVHTFPAVLQSSGLYSLSSVVTVPSSSLGTKTYTCNVDHKPSNTKVDKRVESKYGPPCPPCPAPEFLGGPSVFLFPPKPKDTLYITREPEVTCVVVDVSQEDPEVQFNWYVDGVEVHNAKTKPREEQFNSTYRVVSVLTVLHQDWLNGKEYKCKVSNKGLPSSIEKTISKAKGQPREPQVYTLPPSQEEMTKNQVSLTCLVKGFYPSDIAVEWESNGQPENNYKTTPPVLDSDGSFFLYSRLTVDKSRWQEGNVFSCSVMHEALHNHYTQKSLSLSLGK
light: DIVMTQSPLSLPVTPGEPASISCRSSQSLLYSHGYNYLDWYLQKSGQSPQLLIYLASNRASGVPDRFSGSGSGTDFTLKISRVEAEDVGFYYCMQSLYTPYTFGQGTKLEIKRTVAAPSVFIFPPSDEQLKSGTASVVCLLNNFYPREAKVQWKVDNALQSGNSQESVTEQDSKDSTYSLSSTLTLSKADYEKHKVYACEVTHQGLSSPVTKSFNRGEC
notes: hIgG4 YTE variant, kappa
For B13, the “Inhibition of CD23 Expression … Donor 13” value [1] was 27.5 nM, the “Inhibition of CD23 Expression … Donor 52” value [1] was 17.8 nM and the “Inhibition of CD23 Expression … Donor 53” value [1] was 40.6 nM. The “Inhibition of CD23 Expression … Donor 56” value [1] was 54.4 nM, the Kd [4] was 0.0333 nM and the koff [4] was 2.59e-05 s⁻¹. For the same binder, the kon [4] was 778000 M⁻¹ s⁻¹.

B14: AB-13d (antibody, human IgG1, kappa)
heavy: not shown
light: DIVMTQSPLSLPVTPGEPASISCRSSQSLLYSHGYNYLDWYLQKSGQSPQLLIYLASNRASGVPDRFSGSGSGTDFTLKISRVEAEDVGFYYCMQSLYTPYTFGQGTKLEIKRTVAAPSVFIFPPSDEQLKSGTASVVCLLNNFYPREAKVQWKVDNALQSGNSQESVTEQDSKDSTYSLSSTLTLSKADYEKHKVYACEVTHQGLSSPVTKSFNRGEC
notes: hIgG1, kappa
For B14, the Kd [4] was 0.0326 nM, the koff [4] was 2.57e-05 s⁻¹ and the kon [4] was 789000 M⁻¹ s⁻¹.
